Results on 2 molecules are retold here after publication PMC4216189 (Biochemistry, 2014).

The test deals with T1, Escherichia coli lipoyl synthase, hexahistidine-tagged (Escherichia coli, UniProt P60716 1-321).
T1 sequence (looked up): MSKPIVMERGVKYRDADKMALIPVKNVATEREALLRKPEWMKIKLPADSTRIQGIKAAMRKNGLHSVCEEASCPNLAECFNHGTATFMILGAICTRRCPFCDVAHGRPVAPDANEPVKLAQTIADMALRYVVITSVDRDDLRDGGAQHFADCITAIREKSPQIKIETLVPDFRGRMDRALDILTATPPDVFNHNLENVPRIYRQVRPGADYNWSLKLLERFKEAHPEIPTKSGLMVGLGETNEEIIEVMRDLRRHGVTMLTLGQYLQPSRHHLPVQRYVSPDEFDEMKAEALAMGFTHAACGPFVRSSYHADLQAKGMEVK
The experiment in a line: co-elution on anion-exchange chromatography.

B1: [8,8,8-2H3]-octanoyl-H protein of Escherichia coli (natural protein, UniProt P0A6T9 1-129, looked up)
chain: MSNVPAELKYSKEHEWLRKEADGTYTVGITEHAQELLGDMVFVDLPEVGATVSAGDDCAVAESVKAASDIYAPVSGEIVAVNDALSDSPELVNSEPYAGGWIFKIKASDESELESLLDATAYEALLEDE
modifications: N6-([8,8,8-2H3]-octanoyl)-lysine (position not given)
Regarding B1, the binding result is “binds”.

B2: octanoyl-H protein of Escherichia coli (unlabeled) (natural protein, UniProt P0A6T9 1-129, looked up)
chain: MSNVPAELKYSKEHEWLRKEADGTYTVGITEHAQELLGDMVFVDLPEVGATVSAGDDCAVAESVKAASDIYAPVSGEIVAVNDALSDSPELVNSEPYAGGWIFKIKASDESELESLLDATAYEALLEDE
modifications: N6-octanoyl-lysine (position not given)
For B2, the binding result is recorded as “binds”.
